Sequences and labels used below:
T1: His-tagged CEACAM1 (human, UniProt P13688 35-428)
T1 construct: 45 kDa SPR analyte; also called CEACAM1-HIS; CEACAM1 analyte
T1 sequence: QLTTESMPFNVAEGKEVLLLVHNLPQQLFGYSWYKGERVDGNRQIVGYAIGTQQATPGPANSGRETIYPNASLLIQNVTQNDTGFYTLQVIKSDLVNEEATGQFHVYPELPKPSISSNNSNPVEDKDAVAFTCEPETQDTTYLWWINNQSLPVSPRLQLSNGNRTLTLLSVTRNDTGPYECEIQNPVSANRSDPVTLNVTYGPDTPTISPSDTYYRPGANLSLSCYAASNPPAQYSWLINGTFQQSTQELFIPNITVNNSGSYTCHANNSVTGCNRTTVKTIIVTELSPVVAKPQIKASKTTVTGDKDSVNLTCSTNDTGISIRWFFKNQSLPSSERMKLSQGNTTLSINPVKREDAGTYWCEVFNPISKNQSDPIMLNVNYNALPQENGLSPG

B1: 8H3_9B3/CP08E05 (antibody, IgG4, V domains shown)
VH: EVQLLESGGGLVQPGGSLRLSCAASGFTFNAHAISWVRQAPGKGLEWVATISSGGTYTYYPDSVKGRFTISRDNSKNTLYLQMNSLKAEDTAMYYCARHDFDYFPYWFAHWGQGTLVTVSS
VL: EIVLTQSPATLSLSPGERATLSCRANSAVSYMYWYQQKPGQAPRPWIYLTSNRATGVPARFSGSGSGTDYTLTISSLEPEDFAVYYCQQWTTNPPTFGQGTKLEIK
notes: IgG4 (S241P), kappa
B2: 8H3_9C2/CP08F05 (antibody, IgG4, V domains shown)
VH: B1 VH with G26E, N30S, A31D, I34M, D100G
VL: B1 VL with T92S
notes: IgG4 (S241P), kappa; also called 8H3_9C2/CPO08_F05
B3: CP09B03/CP08E05 (antibody, IgG4, V domains shown)
VH: B1 VH with F104D, P105A, Y106A, H110Y
VL: B1 VL
notes: IgG4 (S241P), kappa
B4: CP09C02/CP08F05 (antibody, IgG4, V domains shown)
VH: B1 VH with G26E, N30S, A31D, I34M, D100G, F104D, P105A, Y106A, H110Y
VL: B1 VL with T92S
notes: IgG4 (S241P), kappa
B5: 8H3_9B3/CP08F05 (antibody, IgG4, V domains shown)
VH: B1 VH
VL: B1 VL with T92S
notes: IgG4 (S241P), kappa
B6: 8H3_9B3/Vκ8 S29A (antibody, IgG4, V domains shown)
VH: B1 VH
VL: B1 VL with T91S, T92S
notes: IgG4 (S241P), kappa

Residue numbers refer to the chain shown, from its start. Names may count otherwise.

As a reminder, the Kd is a measure of binding affinity in units of concentration. A lower Kd goes with tighter binding. A word on the koff: it is the rate constant with which the complex falls apart. Low readings indicate a long-lived complex, high ones a short-lived complex. What is called kon is the rate constant with which the complex forms. A low value points to slow association.

The first test has as its target T1, His-tagged CEACAM1. Put plainly: SPR single-cycle, purified IgG captured. The essentials: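 Surface plasmon resonance single-cycle kinetics on a Biacore T200 at 25° C in HBS-P+ (pH 7.4). Purified IgG was captured on a Series S Protein A chip and His-tagged CEACAM1 was the analyte. Reference-channel and blank-run signals were subtracted. Kon, koff and Kd were fitted, and relative KD was calculated against the parent antibody assayed in the same experiment.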
For the molecule B1, the Kd stood at 69 nM, the koff worked out at 0.0065 s⁻¹, the kon stood at 95000 M⁻¹ s⁻¹ and the “relative KD to parent” value was determined as 6.9.
For B2, in that order: 76 nM, 0.0055 s⁻¹, 73000 M⁻¹ s⁻¹ and 6.3.
Regarding B3, the equilibrium dissociation constant (Kd) is 90 nM, the koff was 0.0096 s⁻¹, the kon is 110000 M⁻¹ s⁻¹ and the “relative KD to parent” value came out at 5.3.
Take B4: the Kd stood at 95 nM, the koff amounted to 0.01 s⁻¹, the kon came out at 110000 M⁻¹ s⁻¹ and the “relative KD to parent” value came out at 5.
Consider B5, for which binding was put at a Kd of 59 nM, the koff is 0.0056 s⁻¹, the kon worked out at 95000 M⁻¹ s⁻¹ and the “relative KD to parent” value worked out at 8.
Regarding B6, binding was characterised by a dissociation constant (Kd) of 67 nM, the koff worked out at 0.0062 s⁻¹, the kon was found to be 92000 M⁻¹ s⁻¹ and the “relative KD to parent” value worked out at 7.1.

The next test addresses T1, His-tagged CEACAM1. Put plainly: SPR single-cycle, supernatant IgG captured. The essentials: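 On a Biacore T200 run at 25° C in HBS-P+ (pH 7.4), IgG captured on Protein A was probed with His-tagged CEACAM1 by single-cycle surface plasmon resonance. Fitted Kon, koff and Kd gave a relative KD referenced to the parent antibody from the same experiment. The IgG came from filtered, ELISA-quantified supernatants of HEK EBNA cells transiently transfected with PEI and harvested after 5-7 days.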
As to B3, binding was put at a Kd of 97 nM, the koff turned out to be 0.01 s⁻¹, the kon stood at 110000 M⁻¹ s⁻¹ and the “relative KD to parent” value was determined as 5.7.
As for B4, the Kd is 100 nM, the koff came to 0.011 s⁻¹, the on-rate constant (kon) came out at 110000 M⁻¹ s⁻¹ and the “relative KD to parent” value is 5.5.

The target of the next test is T1, His-tagged CEACAM1. Put plainly: SPR single-cycle, supernatant IgG captured. This is another data set of the same source. The method, then: In order to assess the binding of the humanized, affinity matured reformatted lead IgGs, single-cycle kinetics analysis was performed on crude supernatants using a Biacore T200 running Biacore T200 Control Software V2.0.1 and Biacore T200 Evaluation Software V3.0. Antibodies were diluted in HBS-P+ to a final concentration of 0.5 μg/ml. At the start of each cycle, antibodies were loaded onto Fc2, Fc3 and Fc4 of the Protein A chip. IgGs were captured at a flow rate of 10 μl/min to give an immobilisation level (RL) of ˜100 RU (a level calculated to obtain a Rₘₐₓ of ˜50-150 RU once the analyte is bound). The surface was then allowed to stabilize. Single-cycle kinetics data was obtained with CEACAM1 as the analyte at a flow rate of 80 μl/min to minimize any potential mass transfer effects. Multiple repeats with the parent (VH1/Vκ8 S29A) antibody were performed to check the stability of the surface and analyte over the kinetic cycles. The signal from the reference channel Fc1 (no antibody) was subtracted from that of Fc2, Fc3 and Fc4 to correct for differences in non-specific binding to the reference surface. A three point, two-fold dilution range from 70 nM to 280 nM CEACAM1 without regeneration between each concentration was used. The signal from each antibody blank run (no CEACAM1) was subtracted to correct for differences in surface stability. The association phase for the three injections of increasing concentrations of CEACAM1 was monitored for 80 seconds each time and a single dissociation phase was measured for 150 seconds following the last injection of CEACAM1. Regeneration of the Protein A surface was conducted using two injections of 10 mM glycine-HCL pH 1.5 followed by a stabilization period of 250 seconds.
Consider B1, for which the Kd stood at 77 nM, the off-rate constant (koff) turned out to be 0.0072 s⁻¹, the kon was 93000 M⁻¹ s⁻¹ and the “relative KD to parent” value came to 7.3.
For the molecule B2, the Kd came to 93 nM, the koff was found to be 0.0061 s⁻¹, the kon stood at 66000 M⁻¹ s⁻¹ and the “relative KD to parent” value was found to be 6.
For B5 the same measures were 70 nM, 0.0063 s⁻¹, 90000 M⁻¹ s⁻¹ and 8.
For the molecule B6, binding was characterised by a dissociation constant (Kd) of 77 nM, the koff amounted to 0.0069 s⁻¹, the kon was 90000 M⁻¹ s⁻¹ and the “relative KD to parent” value was found to be 7.2.

These data come from patent US20250074980A1 (BRIGHAM AND WOMEN S HOSPITAL, published 2025).
